Consider 8 substances from article PMC9162458.

Assay [1] deals with LiRAD51^ATPase (Leishmania infantum RAD51 ATPase domain, residues 134–386) (Leishmania infantum). The experiment in a line: fluorescence polarisation; competition: 5 nM Fluor-NCys-LiBRC1 probe with 500 nM LiRAD51^ATPase, GB1-LiBRC repeats in serial dilutions; KD estimated from the fitted IC50; 50 mM Tris pH 8.0, 150 mM NaCl, 100 mM Li2SO4, 1% BSA, 0.1% Tween-20.
In assay [2] the target is Fluor-NCys-LiBRC1 probe (Leishmania infantum). The experiment in a line: fluorescence polarisation; direct titration: LiRAD51^ATPase in two-fold serial dilutions into 5 nM Fluor-NCys-LiBRC1 probe; 50 mM Tris pH 8.0, 150 mM NaCl, 100 mM Li2SO4, 1% BSA, 0.1% Tween-20. (Polarisation of emitted light reports the rotation of a fluorescent probe.)
In assay [3] the target is LiRAD51^ATPase (Leishmania infantum RAD51 ATPase domain, residues 134–386) (Leishmania infantum). The experiment in a line: ITC; LiBRC1 peptide in the syringe, LiRAD51^ATPase in the cell; 25°C; 20 mM Tris pH 8.0, 150 mM NaCl, 100 mM Li2SO4; single-site binding model. A general note: Isothermal titration calorimetry measures the heat released or taken up as one component is titrated into another.

As for “LiBRC1.7 (C-terminal truncation of LiBRC1, residues up to Arg134 removed, GB1 fusion) (domain or fragment)”, the Kd in assay [1] is 0.39 µM. As to “LiBRC2.1 (LiBRC2 Gly154 to alanine, GB1 fusion) (domain or fragment)”, the Kd in assay [1] is 10.6 µM.

On to “LiBRC1.11 (C-terminal truncation of LiBRC1 up until Gln129, GB1 fusion) (domain or fragment)”, for which the Kd in assay [1] was 8.7 µM. On the same count and under the same terms, then “LiBRC1.10 (C-terminal truncation of LiBRC1, Val131 also removed, GB1 fusion) (domain or fragment)”, with 10.1 µM; and “LiBRC1.8 (C-terminal truncation of LiBRC1, Glu133 also removed, GB1 fusion) (domain or fragment)”, with 2.09 µM. Regarding “LiRAD51^ATPase (Leishmania infantum RAD51 ATPase domain, residues 134–386) (domain or fragment)”, the Kd in assay [2] came to 165 nM. Consider LiBRC1 free peptide, for which the Kd in assay [3] came out at 650 nM. In the case of “GB1-LiBRC1-His8 (BRC repeat 1 of Leishmania infantum BRCA2 fused to GB1) (domain or fragment)”, the Kd in assay [1] is 0.29 µM.

As usually defined, the Kd is the free concentration of one partner at which half of the binding sites on the other are occupied at equilibrium, for simple one-to-one binding.
